# Data reported in patent US20190054182A1.
# Where two headings read alike, the source gives them in different places.
# B1: Binding Protein 2 (protein)
# light 1: DFVLTQSPHSLSVTPGESASISCKSSHSLIHGDRNNYLAWYVQKPGRSPQLLIYLASSRASGVPDRFSGSGSDKDFTLKISRVETEDVGTYYCMQGRESPWTFGQGTKVDIKDKTHTASELTQDPAVSVALKQTVTITCRGDSLRSHYASWYQKKPGQAPVLLFYGKNNRPSGIPDRFSGSASGNRASLTITGAQAEDEADYYCSSRDKSGSRLSVFGGGTKLTVLDKTHTRTVAAPSVFIFPPSDEQLKSGTASVVCLLNNFYPREAKVQWKVDNALQSGNSQESVTEQDSKDSTYSLSSTLTLSKADYEKHKVYACEVTHQGLSSPVTKSFNRGEC
# heavy 1: EVRLVESGGGLVKPGGSLRLSCSASGFDFDNAWMTWVRQPPGKGLEWVGRITGPGEGWSVDYAESVKGRFTISRDNTKNTLYLEMNNVRTEDTGYYFCARTGKYYDFWSGYPPGEEYFQDWGQGTLVIVSSDKTHTQVHLTQSGPEVRKPGTSVKVSCKAPGNTLKTYDLHWVRSVPGQGLQWMGWISHEGDKKVIVERFKAKVTIDWDRSTNTAYLQLSGLTSGDTAVYYCAKGSKHRLRDYALYDDDGALNWAVDVDYLSNLEFWGQGTAVTVSSDKTHTASTKGPSVFPLAPSSKSTSGGTAALGCLVKDYFPEPVTVSWNSGALTSGVHTFPAVLQSSGLYSLSSVVTVPSSSLGTQTYICNVNHKPSNTKVDKKVEPKSCDKTHTCPPCPAPELLGGPSVFLFPPKPKDTLMISRTPEVTCVVVDVSHEDPEVKFNWYVDGVEVHNAKTKPREEQYNSTYRVVSVLTVLHQDWLNGKEYKCKVSNKALPAPIEKTISKAKGQPREPQVYTLPPCRDELTKNQVSLWCLVKGFYPSDIAVEWESNGQPENNYKTTPPVLDSDGSFFLYSKLTVDKSRWQQGNVFSCSVLHEALHSHYTQKSLSLSPG
# heavy 2: RAHLVQSGTAMKKPGASVRVSCQTSGYTFTAHILFWFRQAPGRGLEWVGWIKPQYGAVNFGGGFRDRVTLTRDVYREIAYMDIRGLKPDDTAVYYCARDRSYGDSSWALDAWGQGTTVVVSAASTKGPSVFPLAPSSKSTSGGTAALGCLVKDYFPEPVTVSWNSGALTSGVHTFPAVLQSSGLYSLSSVVTVPSSSLGTQTYICNVNHKPSNTKVDKKVEPKSCDKTHTCPPCPAPELLGGPSVFLFPPKPKDTLMISRTPEVTCVVVDVSHEDPEVKFNWYVDGVEVHNAKTKPREEQYNSTYRVVSVLTVLHQDWLNGKEYKCKVSNKALPAPIEKTISKAKGQPREPQVCTLPPSRDELTKNQVSLSCAVKGFYPSDIAVEWESNGQPENNYKTTPPVLDSDGSFFLVSKLTVDKSRWQQGNVFSCSVLHEALHSHYTQKSLSLSPG
# light 2: YIHVTQSPSSLSVSIGDRVTINCQTSQGVGSDLHWYQHKPGRAPKLLIHHTSSVEDGVPSRFSGSGFHTSFNLTISDLQADDIATYYCQVLQFFGRGSRLHIKRTVAAPSVFIFPPSDEQLKSGTASVVCLLNNFYPREAKVQWKVDNALQSGNSQESVTEQDSKDSTYSLSSTLTLSKADYEKHKVYACEVTHQGLSSPVTKSFNRGEC
# B2: Binding Protein 3 (protein)
# light 1: ASELTQDPAVSVALKQTVTITCRGDSLRSHYASWYQKKPGQAPVLLFYGKNNRPSGIPDRFSGSASGNRASLTITGAQAEDEADYYCSSRDKSGSRLSVFGGGTKLTVLDKTHTDFVLTQSPHSLSVTPGESASISCKSSHSLIHGDRNNYLAWYVQKPGRSPQLLIYLASSRASGVPDRFSGSGSDKDFTLKISRVETEDVGTYYCMQGRESPWTFGQGTKVDIKDKTHTRTVAAPSVFIFPPSDEQLKSGTASVVCLLNNFYPREAKVQWKVDNALQSGNSQESVTEQDSKDSTYSLSSTLTLSKADYEKHKVYACEVTHQGLSSPVTKSFNRGEC
# heavy 1: QVHLTQSGPEVRKPGTSVKVSCKAPGNTLKTYDLHWVRSVPGQGLQWMGWISHEGDKKVIVERFKAKVTIDWDRSTNTAYLQLSGLTSGDTAVYYCAKGSKHRLRDYALYDDDGALNWAVDVDYLSNLEFWGQGTAVTVSSDKTHTEVRLVESGGGLVKPGGSLRLSCSASGFDFDNAWMTWVRQPPGKGLEWVGRITGPGEGWSVDYAESVKGRFTISRDNTKNTLYLEMNNVRTEDTGYYFCARTGKYYDFWSGYPPGEEYFQDWGQGTLVIVSSDKTHTASTKGPSVFPLAPSSKSTSGGTAALGCLVKDYFPEPVTVSWNSGALTSGVHTFPAVLQSSGLYSLSSVVTVPSSSLGTQTYICNVNHKPSNTKVDKKVEPKSCDKTHTCPPCPAPELLGGPSVFLFPPKPKDTLMISRTPEVTCVVVDVSHEDPEVKFNWYVDGVEVHNAKTKPREEQYNSTYRVVSVLTVLHQDWLNGKEYKCKVSNKALPAPIEKTISKAKGQPREPQVYTLPPCRDELTKNQVSLWCLVKGFYPSDIAVEWESNGQPENNYKTTPPVLDSDGSFFLYSKLTVDKSRWQQGNVFSCSVLHEALHSHYTQKSLSLSPG
# heavy 2: B1 heavy 2
# light 2: B1 light 2
# B3: MPER Ab (antibody, V domains shown)
# VH: EVRLVESGGGLVKPGGSLRLSCSASGFDFDNAWMTWVRQPPGKGLEWVGRITGPGEGWSVDYAESVKGRFTISRDNTKNTLYLEMNNVRTEDTGYYFCARTGKYYDFWSGYPPGEEYFQDWGQGTLVIVSS
# VL: ASELTQDPAVSVALKQTVTITCRGDSLRSHYASWYQKKPGQAPVLLFYGKNNRPSGIPDRFSGSASGNRASLTITGAQAEDEADYYCSSRDKSGSRLSVFGGGTKLTVL
# B4: V1/V2 directed Ab “a” (antibody, V domains shown)
# VH: QVHLTQSGPEVRKPGTSVKVSCKAPGNTLKTYDLHWVRSVPGQGLQWMGWISHEGDKKVIVERFKAKVTIDWDRSTNTAYLQLSGLTSGDTAVYYCAKGSKHRLRDYALYDDDGALNWAVDVDYLSNLEFWGQGTAVTVSS
# VL: DFVLTQSPHSLSVTPGESASISCKSSHSLIHGDRNNYLAWYVQKPGRSPQLLIYLASSRASGVPDRFSGSGSDKDFTLKISRVETEDVGTYYCMQGRESPWTFGQGTKVDIK
# B5: V1/V2 directed Ab “b” (antibody, V domains shown)
# VH: QVQLVESGGGVVQPGTSLRLSCAASQFRFDGYGMHWVRQAPGKGLEWVASISHDGIKKYHAEKVWGRFTISRDNSKNTLYLQMNSLRPEDTALYYCAKDLREDECEEWWSDYYDFGKQLPCAKSRGGLVGIADNWGQGTMVTVSS
# VL: QSVLTQPPSVSAAPGQKVTISCSGNTSNIGNNFVSWYQQRPGRAPQLLIYETDKRPSGIPDRFSASKSGTSGTLAITGLQTGDEADYYCATWAASLSSARVFGTGTKVIVL
# Key:
# [1] = target: T1, MPER binding peptide (Acetyl-[…]-Ttds-Lys-(Biotin)-NH2) (HIV-1)
# [2] = target: T1, MPER binding peptide …; experiment: SPR (Biacore) with the MPER binding peptide
# [3] = target: panel of 208 different HIV-1 Env-pseudotyped viruses; experiment: cell-based or functional assay
# [4] = target: 20 pseudotyped viruses representing 10 different HIV-1 clades; experiment: cell-based or functional assay
# [5] = target: 20 pseudotyped viruses representing 10 different HIV-1 clades; experiment: cell-based or functional assay; remark: listed apart in the source
Binder,Ka [1] [M⁻¹],Kd [1] [nM],koff [1] [s⁻¹],kon [1] [M⁻¹ s⁻¹],fold higher affinity than the MPER antibody [2] [fold],Geometric Mean (IC80) [3] [µg/mL],Median IC80 [3] [µg/mL],Geometric Mean (IC80) [4] [µg/mL],Median IC80 [4] [µg/mL],Geometric Mean (IC80) [5] [µg/mL],Median IC80 [5] [µg/mL]
B1,1.65e+08,6.05,0.000697,115000,3.1,0.028,0.026,0.222,0.375,–,–
B2,6e+07,16.7,0.000779,46700,–,0.051,0.045,0.287,0.469,–,–
B3,5.35e+07,18.7,0.00109,58500,–,1.34,1.69,–,–,–,–
B4,–,–,–,–,–,0.063,0.037,0.094,0.06,–,–
B5,–,–,–,–,–,–,–,–,–,0.039,0.051
